Assay results: patent US20230227545A1 (published 2023)

What was measured:
[1] = biological target: T1, human IL-1β (human, UniProt P01584 117-269); assay: cell-based or functional assay
[2] = biological target: T2, pig IL-1β (pig, UniProt P26889 115-267); assay: SPR, Biacore 8K, mAb captured on anti-human Fc chip, soluble IL-1β as analyte
T2 construct: also called pig IL-β
T2 sequence (looked up): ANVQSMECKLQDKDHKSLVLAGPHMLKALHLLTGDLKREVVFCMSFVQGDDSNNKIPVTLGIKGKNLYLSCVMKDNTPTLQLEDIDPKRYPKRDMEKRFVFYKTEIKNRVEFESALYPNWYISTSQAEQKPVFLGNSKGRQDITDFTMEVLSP
Protocol: (§1) Affinity assessment of 05H21A, 15N14A, and 08F17A against human IL-1β was performed by Surface Plasmon Resonance (SPR) using a Biacore 8k. Cross-reactivity of the same antibody panel was also assessed against cyno, mouse, rat and pig IL-1β.
(§2) SPR is a label-free technique to study the strength of an interaction between two binding partners by measuring the change in mass upon complex formation and dissociation. Briefly, antibodies were immobilized on a sensor chip which was coupled with goat anti-human Fc (GAH-Fc C1 sensor chip). Soluble IL-1β was flowed over the immobilized antibody and association/dissociation responses were monitored. Kinetic information (on-rate and off-rate constants) were extracted by fitting sensorgrams to the 1:1 Langmuir model. Binding affinity (KD) were reported as the ratio of rate constants (koff/kₒₙ).

[3] = biological target: T1, human IL-1β; assay: cell-based or functional assay; remark: listed apart in the source
[4] = biological target: T3, cynomolgus IL-1β (cynomolgus macaque, UniProt P79182 117-268); assay: cell-based or functional assay
T3 sequence (looked up): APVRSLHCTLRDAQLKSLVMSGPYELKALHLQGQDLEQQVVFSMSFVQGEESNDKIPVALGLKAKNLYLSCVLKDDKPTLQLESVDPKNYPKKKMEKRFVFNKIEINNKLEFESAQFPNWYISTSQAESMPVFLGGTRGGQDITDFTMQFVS

[5] = biological target: T1, human IL-1β; assay: cell-based or functional assay; remark: listed apart in the source
[6] = biological target: T3, cynomolgus IL-1β; assay: SPR, Biacore 8K, mAb captured on goat anti-human Fc C1 chip, soluble IL-1β as analyte, 1:1 Langmuir fit
Protocol: as §1, §2

[7] = biological target: T1, human IL-1β; assay: as above
Protocol: as §1, §2

B1: 05H21A (antibody, human IgG1, lambda, V domains shown)
VH: QVTLRESGPALVKPTQTLTLTCTFSGFSLSTSGMWVSWIRQPPGKALEWLALIDWGDDKYYTTSLKTRLTISKDTSKNQVVLTMTNMDPVDTATYYCARMREGSRAFDIWGQGTVVTVSS
VL: QSVLTQPPSVSEAPRQRVTISCSGSSSNIGDNAVNWYQQLPGKAPKLLIYNDDLLSSGVSDRFSGSKSGTSASLAISGLQSEDEADYYCAAWDDSLNGPVFGGGTKLTVLG
notes: Lambda light chain; also called 05H21A (anti-IL-1β) mAb [IgG1: YTE]
- IC30, inhibition of rhIL-1β-induced cytokine release, NHDF donor 29114 [1]: 39 pM
- IC30, inhibition of rhIL-1β-induced cytokine release, NHLF donor 34325 [1]: 71 pM
- IC30, inhibition of rhIL-1β-induced cytokine release, NHLF donor 35234 [1]: 42 pM
- IC50, inhibition of rhIL-1β-induced cytokine release, NHDF donor 29114 [1]: 78 pM
- IC50, inhibition of rhIL-1β-induced cytokine release, NHLF donor 34325 [1]: 167 pM
- IC50, inhibition of rhIL-1β-induced cytokine release, NHLF donor 35234 [1]: 98 pM
- IC90, inhibition of rhIL-1β-induced cytokine release, NHDF donor 29114 [1]: 490 pM
- IC90, inhibition of rhIL-1β-induced cytokine release, NHLF donor 34325 [1]: 1510 pM
- IC90, inhibition of rhIL-1β-induced cytokine release, NHLF donor 35234 [1]: 890 pM
- binding result [2]: no binding
- IC30, inhibition of IL-6 release, human PBMCs (n=5 donors), 10 pM rhIL-1β [3]: 43 pM
- IC30, inhibition of IL-6 release, human PBMCs (n=5 donors), 30 pM rhIL-1β [3]: 0.104 nM
- IC50, inhibition of IL-6 release, human PBMCs (n=5 donors), 10 pM rhIL-1β [3]: 70 pM
- IC50, inhibition of IL-6 release, human PBMCs (n=5 donors), 30 pM rhIL-1β [3]: 0.164 nM
- IC90, inhibition of IL-6 release, human PBMCs (n=5 donors), 10 pM rhIL-1β [3]: 0.244 nM
- IC90, inhibition of IL-6 release, human PBMCs (n=5 donors), 30 pM rhIL-1β [3]: 0.533 nM
- IC30, inhibition of G-CSF release, cynomolgus lung fibroblasts (CLF), 15 pM rcynoIL-1β [4]: 0.195 nM
- IC30, inhibition of IL-6 release, cynomolgus dermal fibroblasts (CDF), 5 pM rcynoIL-1β [4]: 89 pM
- IC30, inhibition of IL-6 release, cynomolgus lung fibroblasts (CLF), 15 pM rcynoIL-1β [4]: 0.214 nM
- IC50, inhibition of G-CSF release, cynomolgus dermal fibroblasts (CDF), 5 pM rcynoIL-1β [4]: 59 pM
- IC50, inhibition of G-CSF release, cynomolgus lung fibroblasts (CLF), 15 pM rcynoIL-1β [4]: 0.27 nM
- IC50, inhibition of IL-6 release, cynomolgus dermal fibroblasts (CDF), 5 pM rcynoIL-1β [4]: 0.175 nM
- IC50, inhibition of IL-6 release, cynomolgus lung fibroblasts (CLF), 15 pM rcynoIL-1β [4]: 0.306 nM
- IC90, inhibition of G-CSF release, cynomolgus lung fibroblasts (CLF), 15 pM rcynoIL-1β [4]: 0.63 nM
- IC90, inhibition of IL-6 release, cynomolgus dermal fibroblasts (CDF), 5 pM rcynoIL-1β [4]: 0.997 nM
- IC90, inhibition of IL-6 release, cynomolgus lung fibroblasts (CLF), 15 pM rcynoIL-1β [4]: 0.779 nM
- IC30, inhibition of rhIL-1β-induced CXCL5 release, human whole blood (5 donors) [5]: 400 pM
- IC30, inhibition of rhIL-1β-induced G-CSF release, human whole blood (5 donors) [5]: 364 pM
- IC30, inhibition of rhIL-1β-induced IL-6 release, human whole blood (5 donors) [5]: 393 pM
- IC50, inhibition of rhIL-1β-induced CXCL5 release, human whole blood (5 donors) [5]: 622 pM
- IC50, inhibition of rhIL-1β-induced G-CSF release, human whole blood (5 donors) [5]: 632 pM
- IC50, inhibition of rhIL-1β-induced IL-6 release, human whole blood (5 donors) [5]: 631 pM
- IC90, inhibition of rhIL-1β-induced CXCL5 release, human whole blood (5 donors) [5]: 1950 pM
- IC90, inhibition of rhIL-1β-induced G-CSF release, human whole blood (5 donors) [5]: 2640 pM
- IC90, inhibition of rhIL-1β-induced IL-6 release, human whole blood (5 donors) [5]: 2160 pM
- Kd [6]: 22 pM
- koff [6]: 0.000348 s⁻¹
- kon [6]: 1.58e+07 M⁻¹ s⁻¹
- Kd [7]: 19.7 pM
- koff [7]: 0.000422 s⁻¹
- kon [7]: 2.14e+07 M⁻¹ s⁻¹
